According to paper PMC9482650, “Quantitative fragmentomics allow affinity mapping of interactomes” (Nature Communications, 2022):

T1: RHPN1, Q8TCX5
T1 sequence (Q8TCX5 508-602, limits assumed, looked up): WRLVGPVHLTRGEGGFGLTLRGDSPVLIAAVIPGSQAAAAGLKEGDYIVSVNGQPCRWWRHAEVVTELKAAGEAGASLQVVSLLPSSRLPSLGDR

T2: GRIP1_4, Q9Y3R0
T2 sequence (Q9Y3R0 467-571, limits assumed, looked up): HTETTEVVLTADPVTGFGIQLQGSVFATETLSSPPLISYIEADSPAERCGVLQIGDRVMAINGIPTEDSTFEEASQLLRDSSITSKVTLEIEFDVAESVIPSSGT

T3: DLG3_1, Q92796
T3 sequence (Q92796 125-227, limits assumed, looked up): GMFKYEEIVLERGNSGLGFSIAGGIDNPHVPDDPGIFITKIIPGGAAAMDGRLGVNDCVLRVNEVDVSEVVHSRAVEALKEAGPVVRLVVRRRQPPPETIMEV

T4: GRIP1_2, Q9Y3R0
T4 sequence (Q9Y3R0 145-248, limits assumed, looked up): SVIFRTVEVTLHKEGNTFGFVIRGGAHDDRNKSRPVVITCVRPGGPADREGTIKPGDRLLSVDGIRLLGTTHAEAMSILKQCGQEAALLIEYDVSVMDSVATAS

T5: MPDZ_10, O75970
T5 sequence (O75970 1624-1722, limits assumed, looked up): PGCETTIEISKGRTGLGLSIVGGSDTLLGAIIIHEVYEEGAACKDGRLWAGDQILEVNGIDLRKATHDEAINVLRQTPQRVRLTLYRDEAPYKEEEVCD

T6: LIN7B, Q9HAP6
T6 sequence (Q9HAP6 88-185, limits assumed, looked up): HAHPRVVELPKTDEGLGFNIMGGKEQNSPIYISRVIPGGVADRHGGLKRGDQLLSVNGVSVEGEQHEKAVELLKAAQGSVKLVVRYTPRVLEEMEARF

T7: DLG3_2, Q92796
T7 sequence (Q92796 221-321, limits assumed, looked up): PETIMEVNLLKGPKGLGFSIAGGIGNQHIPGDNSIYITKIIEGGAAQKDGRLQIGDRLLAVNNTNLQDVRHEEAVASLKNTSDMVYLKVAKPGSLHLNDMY

T8: SYNJ2BP, P57105
T8 sequence (P57105 8-110, limits assumed, looked up): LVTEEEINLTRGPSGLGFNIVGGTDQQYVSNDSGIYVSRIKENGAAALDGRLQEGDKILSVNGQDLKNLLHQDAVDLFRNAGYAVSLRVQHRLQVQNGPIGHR

T9: PARD3B_1, Q8TEW8
T9 sequence (Q8TEW8 196-299, limits assumed, looked up): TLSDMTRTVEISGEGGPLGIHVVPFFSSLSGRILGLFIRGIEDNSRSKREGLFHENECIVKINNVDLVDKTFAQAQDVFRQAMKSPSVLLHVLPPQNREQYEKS

T10: HTRA3, P83110
T10 sequence (P83110 354-453, limits assumed, looked up): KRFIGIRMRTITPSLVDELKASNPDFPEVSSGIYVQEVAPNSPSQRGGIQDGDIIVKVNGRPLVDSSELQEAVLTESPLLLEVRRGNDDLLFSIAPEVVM

T11: PTPN13_1, Q12923
T11 sequence (Q12923 1088-1188, limits assumed, looked up): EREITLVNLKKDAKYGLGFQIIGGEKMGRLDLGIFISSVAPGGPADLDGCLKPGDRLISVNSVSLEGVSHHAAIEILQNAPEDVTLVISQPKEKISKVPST

T12: DFNB31_1, Q9P202
T12 sequence (Q9P202 135-233, limits assumed, looked up): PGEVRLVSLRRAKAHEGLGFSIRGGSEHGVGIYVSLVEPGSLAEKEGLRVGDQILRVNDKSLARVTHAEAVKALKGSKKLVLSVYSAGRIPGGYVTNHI


Molecular target: GORASP2, Q9H8Y8
Experiment: holdup assay
Parameters: key: below the threshold = too weak to quantify, mostly under pKd 3.1 to 4
Conditions: plain residues with an end cap or a label only (N-terminal biotin on a linker: ado-ado)

Row | Binder | pKd
1 | QSPANIYYKV [EFNB1, P52799] | 5.16

Molecular target: T1, RHPN1, Q8TCX5
Experiment: holdup assay
Parameters: key: below the threshold = too weak to quantify, mostly under pKd 3.1 to 4
Conditions: plain residues with an end cap or a label only (N-terminal biotin on a linker: ado-ado)

Row | Binder | pKd
2 | QSPANIYYKV [EFNB1, P52799] | below the threshold

Molecular target: TJP1_3, Q07157
Sequence (Q07157 416-512): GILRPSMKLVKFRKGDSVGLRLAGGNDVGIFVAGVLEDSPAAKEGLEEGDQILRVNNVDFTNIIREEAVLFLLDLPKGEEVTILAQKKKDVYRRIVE
Experiment: holdup assay
Parameters: key: below the threshold = too weak to quantify, mostly under pKd 3.1 to 4
Conditions: plain residues with an end cap or a label only (N-terminal biotin on a linker: ado-ado)

Row | Binder | pKd
3 | QSPANIYYKV [EFNB1, P52799] | below the threshold

Molecular target: NOS1, P29475
Sequence (P29475 9-101): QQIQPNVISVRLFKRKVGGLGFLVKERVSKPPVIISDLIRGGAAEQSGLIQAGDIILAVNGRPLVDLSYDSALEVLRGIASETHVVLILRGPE
Experiment: holdup assay
Parameters: key: below the threshold = too weak to quantify, mostly under pKd 3.1 to 4
Conditions: plain residues with an end cap or a label only (N-terminal biotin on a linker: ado-ado)

Row | Binder | pKd
4 | QSPANIYYKV [EFNB1, P52799] | below the threshold

Molecular target: T2, GRIP1_4, Q9Y3R0
Experiment: holdup assay
Parameters: key: below the threshold = too weak to quantify, mostly under pKd 3.1 to 4
Conditions: plain residues with an end cap or a label only (N-terminal biotin on a linker: ado-ado)

Row | Binder | pKd
5 | QSPANIYYKV [EFNB1, P52799] | below the threshold

Molecular target: NHERF4_4, Q86UT5
Sequence (Q86UT5 464-550): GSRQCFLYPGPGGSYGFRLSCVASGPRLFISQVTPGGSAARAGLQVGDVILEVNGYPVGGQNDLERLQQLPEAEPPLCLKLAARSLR
Experiment: holdup assay
Parameters: key: below the threshold = too weak to quantify, mostly under pKd 3.1 to 4
Conditions: plain residues with an end cap or a label only (N-terminal biotin on a linker: ado-ado)

Row | Binder | pKd
6 | QSPANIYYKV [EFNB1, P52799] | below the threshold

Molecular target: T3, DLG3_1, Q92796
Experiment: holdup assay
Parameters: key: below the threshold = too weak to quantify, mostly under pKd 3.1 to 4
Conditions: plain residues with an end cap or a label only (N-terminal biotin on a linker: ado-ado)

Row | Binder | pKd
7 | QSPANIYYKV [EFNB1, P52799] | below the threshold

Molecular target: DLG1_3, Q12959
Sequence (Q12959 457-571): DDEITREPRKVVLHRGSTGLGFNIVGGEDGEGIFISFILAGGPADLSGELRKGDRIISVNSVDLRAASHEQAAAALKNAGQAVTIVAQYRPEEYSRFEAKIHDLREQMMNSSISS
Experiment: holdup assay
Parameters: key: below the threshold = too weak to quantify, mostly under pKd 3.1 to 4
Conditions: plain residues with an end cap or a label only (N-terminal biotin on a linker: ado-ado)

Row | Binder | pKd
8 | QSPANIYYKV [EFNB1, P52799] | below the threshold

Molecular target: HTRA1, Q92743
Sequence (Q92743 360-477): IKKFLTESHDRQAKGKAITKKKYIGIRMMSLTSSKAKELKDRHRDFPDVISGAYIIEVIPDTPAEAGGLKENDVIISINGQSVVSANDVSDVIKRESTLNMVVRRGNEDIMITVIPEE
Experiment: holdup assay
Parameters: key: below the threshold = too weak to quantify, mostly under pKd 3.1 to 4
Conditions: plain residues with an end cap or a label only (N-terminal biotin on a linker: ado-ado)

Row | Binder | pKd
9 | QSPANIYYKV [EFNB1, P52799] | 4.37

Molecular target: Inadl_5, Q8NI35
Sequence (Q8NI35 673-780): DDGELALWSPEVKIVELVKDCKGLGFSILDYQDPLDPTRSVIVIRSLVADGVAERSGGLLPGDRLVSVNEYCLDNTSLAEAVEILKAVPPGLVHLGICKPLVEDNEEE
Experiment: holdup assay
Parameters: key: below the threshold = too weak to quantify, mostly under pKd 3.1 to 4
Conditions: plain residues with an end cap or a label only (N-terminal biotin on a linker: ado-ado)

Row | Binder | pKd
10 | QSPANIYYKV [EFNB1, P52799] | below the threshold

Molecular target: LAP2, Q96RT1
Sequence (Q96RT1 other isoform, or with tags, fused parts or gaps): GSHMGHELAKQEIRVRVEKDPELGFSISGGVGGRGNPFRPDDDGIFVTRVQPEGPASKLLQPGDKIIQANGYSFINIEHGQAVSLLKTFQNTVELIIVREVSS
Experiment: holdup assay
Parameters: key: below the threshold = too weak to quantify, mostly under pKd 3.1 to 4
Conditions: plain residues with an end cap or a label only (N-terminal biotin on a linker: ado-ado)

Row | Binder | pKd
11 | QSPANIYYKV [EFNB1, P52799] | below the threshold

Molecular target: TJP2_1, Q9UDY2
Sequence (Q9UDY2 24-128): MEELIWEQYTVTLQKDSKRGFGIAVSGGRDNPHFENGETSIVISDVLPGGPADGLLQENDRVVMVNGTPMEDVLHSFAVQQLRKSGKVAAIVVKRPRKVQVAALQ
Experiment: holdup assay
Parameters: key: below the threshold = too weak to quantify, mostly under pKd 3.1 to 4
Conditions: plain residues with an end cap or a label only (N-terminal biotin on a linker: ado-ado)

Row | Binder | pKd
12 | QSPANIYYKV [EFNB1, P52799] | below the threshold

Molecular target: Inadl_9, Q8NI35
Sequence (Q8NI35 1530-1615): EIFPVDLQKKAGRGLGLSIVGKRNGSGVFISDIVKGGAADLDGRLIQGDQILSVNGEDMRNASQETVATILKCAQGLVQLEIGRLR
Experiment: holdup assay
Parameters: key: below the threshold = too weak to quantify, mostly under pKd 3.1 to 4
Conditions: plain residues with an end cap or a label only (N-terminal biotin on a linker: ado-ado)

Row | Binder | pKd
13 | QSPANIYYKV [EFNB1, P52799] | below the threshold

Molecular target: Inadl_10, Q8NI35
Sequence (Q8NI35 1673-1763): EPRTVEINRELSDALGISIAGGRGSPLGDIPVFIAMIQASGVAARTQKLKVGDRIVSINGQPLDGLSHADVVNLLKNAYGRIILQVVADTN
Experiment: holdup assay
Parameters: key: below the threshold = too weak to quantify, mostly under pKd 3.1 to 4
Conditions: plain residues with an end cap or a label only (N-terminal biotin on a linker: ado-ado)

Row | Binder | pKd
14 | QSPANIYYKV [EFNB1, P52799] | below the threshold

Molecular target: T4, GRIP1_2, Q9Y3R0
Experiment: holdup assay
Parameters: key: below the threshold = too weak to quantify, mostly under pKd 3.1 to 4
Conditions: plain residues with an end cap or a label only (N-terminal biotin on a linker: ado-ado)

Row | Binder | pKd
15 | QSPANIYYKV [EFNB1, P52799] | below the threshold

Molecular target: T5, MPDZ_10, O75970
Experiment: holdup assay
Parameters: key: below the threshold = too weak to quantify, mostly under pKd 3.1 to 4
Conditions: plain residues with an end cap or a label only (N-terminal biotin on a linker: ado-ado)

Row | Binder | pKd
16 | QSPANIYYKV [EFNB1, P52799] | below the threshold

Molecular target: DLG4_1, P78352
Sequence (P78352 62-152): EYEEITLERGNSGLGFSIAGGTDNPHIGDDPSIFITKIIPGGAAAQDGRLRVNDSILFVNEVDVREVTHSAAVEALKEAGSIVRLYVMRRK
Experiment: holdup assay
Parameters: key: below the threshold = too weak to quantify, mostly under pKd 3.1 to 4
Conditions: plain residues with an end cap or a label only (N-terminal biotin on a linker: ado-ado)

Row | Binder | pKd
17 | QSPANIYYKV [EFNB1, P52799] | below the threshold

Molecular target: T6, LIN7B, Q9HAP6
Experiment: holdup assay
Parameters: key: below the threshold = too weak to quantify, mostly under pKd 3.1 to 4
Conditions: plain residues with an end cap or a label only (N-terminal biotin on a linker: ado-ado)

Row | Binder | pKd
18 | QSPANIYYKV [EFNB1, P52799] | below the threshold

Molecular target: IL16_1, Q14005
Sequence (Q14005 210-306): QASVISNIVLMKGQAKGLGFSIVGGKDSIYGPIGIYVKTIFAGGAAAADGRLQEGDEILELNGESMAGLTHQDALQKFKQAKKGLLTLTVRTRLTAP
Experiment: holdup assay
Parameters: key: below the threshold = too weak to quantify, mostly under pKd 3.1 to 4
Conditions: plain residues with an end cap or a label only (N-terminal biotin on a linker: ado-ado)

Row | Binder | pKd
19 | QSPANIYYKV [EFNB1, P52799] | below the threshold

Molecular target: T7, DLG3_2, Q92796
Experiment: holdup assay
Parameters: key: below the threshold = too weak to quantify, mostly under pKd 3.1 to 4
Conditions: plain residues with an end cap or a label only (N-terminal biotin on a linker: ado-ado)

Row | Binder | pKd
20 | QSPANIYYKV [EFNB1, P52799] | below the threshold

Molecular target: T8, SYNJ2BP, P57105
Experiment: holdup assay
Parameters: key: below the threshold = too weak to quantify, mostly under pKd 3.1 to 4
Conditions: plain residues with an end cap or a label only (N-terminal biotin on a linker: ado-ado)

Row | Binder | pKd
21 | QSPANIYYKV [EFNB1, P52799] | below the threshold

Molecular target: T9, PARD3B_1, Q8TEW8
Experiment: holdup assay
Parameters: key: below the threshold = too weak to quantify, mostly under pKd 3.1 to 4
Conditions: plain residues with an end cap or a label only (N-terminal biotin on a linker: ado-ado)

Row | Binder | pKd
22 | QSPANIYYKV [EFNB1, P52799] | 3.66

Molecular target: T10, HTRA3, P83110
Experiment: holdup assay
Parameters: key: below the threshold = too weak to quantify, mostly under pKd 3.1 to 4
Conditions: plain residues with an end cap or a label only (N-terminal biotin on a linker: ado-ado)

Row | Binder | pKd
23 | QSPANIYYKV [EFNB1, P52799] | below the threshold

Molecular target: T11, PTPN13_1, Q12923
Experiment: holdup assay
Parameters: key: below the threshold = too weak to quantify, mostly under pKd 3.1 to 4
Conditions: plain residues with an end cap or a label only (N-terminal biotin on a linker: ado-ado)

Row | Binder | pKd
24 | QSPANIYYKV [EFNB1, P52799] | below the threshold

Molecular target: T12, DFNB31_1, Q9P202
Experiment: holdup assay
Parameters: key: below the threshold = too weak to quantify, mostly under pKd 3.1 to 4
Conditions: plain residues with an end cap or a label only (N-terminal biotin on a linker: ado-ado)

Row | Binder | pKd
25 | QSPANIYYKV [EFNB1, P52799] | below the threshold
